Changes are numbered by the printed parent chain.

The values below come from patent US20190106510A1 (CELLDEX THERAPEUTICS, published 2019).

Sequences and labels used below:
T1: murine KIT (murine, UniProt P05532 25-527, limits assumed)
T1 sequence (looked up): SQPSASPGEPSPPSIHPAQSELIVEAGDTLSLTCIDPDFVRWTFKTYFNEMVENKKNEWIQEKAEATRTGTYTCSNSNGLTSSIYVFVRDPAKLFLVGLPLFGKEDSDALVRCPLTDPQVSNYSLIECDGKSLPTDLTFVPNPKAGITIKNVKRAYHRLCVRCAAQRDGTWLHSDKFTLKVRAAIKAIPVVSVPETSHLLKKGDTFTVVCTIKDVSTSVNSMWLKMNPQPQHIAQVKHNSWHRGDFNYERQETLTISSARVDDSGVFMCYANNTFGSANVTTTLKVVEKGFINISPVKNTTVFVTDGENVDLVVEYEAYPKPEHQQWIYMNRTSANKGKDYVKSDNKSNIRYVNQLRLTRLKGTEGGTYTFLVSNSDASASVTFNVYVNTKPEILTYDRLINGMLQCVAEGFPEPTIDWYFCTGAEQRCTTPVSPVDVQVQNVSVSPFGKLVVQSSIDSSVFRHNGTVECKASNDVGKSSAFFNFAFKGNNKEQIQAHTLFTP

B1: chimeric antibody 37C (antibody, V domains shown)
VH: QVQLKQSGAELVRPGASVKLSCKASGYTFTDYYINWVKQRPGQGLEWIARIYPGSGNTYYNEKFKGKATLTAEKSSSTAYMQLSSLTSEDSAVYFCARGVYYFDYWGQGTTLTVSA
VL: DIVMTQSQKFMSTSVGDRVSVTCKASQNVRTNVAWYQQKPGQSPKALIYSASYRYSGVPDRFTGSGSGTDFTLTISNVQSEDLADYFCQQYNSYPRTFGGGTKLEIK
notes: also called chimera of antibody 37M; chimera
B2: Hum8 (antibody, V domains shown)
VH: QVQLVQSGAEVKKPGASVKLSCKASGYTFTDYYINWVRQAPGKGLEWIARIYPGSGNTYYNEKFKGRATLTADKSTSTAYMQLSSLRSEDTAVYFCARGVYYFDYWGQGTTVTVSS
VL: DIVMTQSPSSLSASVGDRVTITCKASQNVRTNVAWYQQKPGKAPKALIYSASYRYSGVPDRFTGSGSGTDFTLTISSLQPEDFADYFCQQYNSYPRTFGGGTKVEIK
B3: Hum17 (antibody, V domains shown)
VH: B2 VH with R38K, D73E
VL: B2 VL with A46S, T63S, D85T, F87Y
B4: Hum4 (antibody, V domains shown)
VH: B2 VH with L20V, L70I, Q82E
VL: B2 VL with S10F, P80S
B5: Hum10 (antibody, V domains shown)
VH: B2 VH with L20V, A68V, L70I, Q82E
VL: B2 VL

T3 sequence (P10721 other isoform, or with tags, fused parts or gaps limits assumed): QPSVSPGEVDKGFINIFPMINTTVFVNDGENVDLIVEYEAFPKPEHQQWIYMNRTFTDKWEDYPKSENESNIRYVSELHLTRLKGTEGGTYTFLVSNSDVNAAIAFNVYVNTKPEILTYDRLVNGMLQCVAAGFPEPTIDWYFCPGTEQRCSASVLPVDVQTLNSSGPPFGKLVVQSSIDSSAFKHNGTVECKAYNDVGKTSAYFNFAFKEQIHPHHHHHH

In the first test the target is T2, full-length, wild-type human KIT expressed on CHO cells (human, UniProt P10721 26-976). As to the kind of experiment: cell-based or functional assay.
T2 sequence (P10721 other isoform, or with tags, fused parts or gaps limits assumed): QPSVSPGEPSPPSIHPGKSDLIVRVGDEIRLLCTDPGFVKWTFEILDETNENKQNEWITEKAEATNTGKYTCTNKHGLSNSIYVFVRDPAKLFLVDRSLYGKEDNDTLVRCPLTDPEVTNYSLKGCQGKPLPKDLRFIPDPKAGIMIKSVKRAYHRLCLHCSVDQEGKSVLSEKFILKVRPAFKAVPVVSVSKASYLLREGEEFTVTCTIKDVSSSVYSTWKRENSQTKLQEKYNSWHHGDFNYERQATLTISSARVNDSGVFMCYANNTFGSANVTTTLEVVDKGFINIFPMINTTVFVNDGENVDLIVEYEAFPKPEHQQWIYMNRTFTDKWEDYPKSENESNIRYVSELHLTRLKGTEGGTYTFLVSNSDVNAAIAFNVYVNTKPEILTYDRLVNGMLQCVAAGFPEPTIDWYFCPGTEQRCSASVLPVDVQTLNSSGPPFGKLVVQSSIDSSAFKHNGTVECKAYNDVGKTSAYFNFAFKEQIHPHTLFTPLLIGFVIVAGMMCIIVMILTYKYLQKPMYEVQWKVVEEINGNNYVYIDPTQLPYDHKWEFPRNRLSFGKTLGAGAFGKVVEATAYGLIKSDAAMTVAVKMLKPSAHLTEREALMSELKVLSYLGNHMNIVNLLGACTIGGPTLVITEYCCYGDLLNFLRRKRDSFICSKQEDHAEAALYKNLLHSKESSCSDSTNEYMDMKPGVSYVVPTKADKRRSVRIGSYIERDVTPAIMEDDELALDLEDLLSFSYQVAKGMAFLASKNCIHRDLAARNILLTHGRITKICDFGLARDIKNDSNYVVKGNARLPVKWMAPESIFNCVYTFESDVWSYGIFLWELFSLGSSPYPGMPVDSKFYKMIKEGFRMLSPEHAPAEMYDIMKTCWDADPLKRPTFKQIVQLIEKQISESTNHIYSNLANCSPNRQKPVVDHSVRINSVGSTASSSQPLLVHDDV
Regarding B1, the “50% inhibition concentration (IC50), SCF-induced KIT tyrosine phosphorylation, cell-based phospho-KIT ELISA” value (“50% inhibition concentration (IC50)” below) was ~0.344 nM.

For the molecule B2, the “50% inhibition concentration (IC50)” value was ~0.542 nM.

Take B3: the “50% inhibition concentration (IC50)” value is ~0.51 nM.

With B4, the “50% inhibition concentration (IC50)” value was ~0.47 nM.

Turning to B5, the “50% inhibition concentration (IC50)” value is ~0.51 nM.

The next test addresses T2, full-length, wild-type human KIT …. Nature of the test: cell-based or functional assay. The source holds these as a separate data set.
As for B2, the “Relative blocking activity, assay #3 (96-well): IC50 of inhibition of SCF-induced KIT phosphorylation, normalized to chimeric 37M antibody” value is 1.01 relative to chimeric 37M antibody and the “Relative blocking activity, assay #4 (96-well): IC50 of inhibition of SCF-induced KIT phosphorylation, normalized to chimeric 37M antibody” value is 1.12 relative to chimeric 37M antibody.

Consider B3, for which the “Relative blocking activity, assay #2 (24-well): IC50 of inhibition of SCF-induced KIT phosphorylation, normalized to chimeric 37M antibody” value was 1.39 relative to chimeric 37M antibody and the “Relative blocking activity, assay #4 (96-well): IC50 of inhibition of SCF-induced KIT phosphorylation, normalized to chimeric 37M antibody” value is 1.07 relative to chimeric 37M antibody.

On to B4, for which the “Relative blocking activity, assay #2 (24-well): IC50 of inhibition of SCF-induced KIT phosphorylation, normalized to chimeric 37M antibody” value was 1.2 relative to chimeric 37M antibody and the “Relative blocking activity, assay #4 (96-well): IC50 of inhibition of SCF-induced KIT phosphorylation, normalized to chimeric 37M antibody” value was 0.86 relative to chimeric 37M antibody.

With B5, the “Relative blocking activity, assay #2 (24-well): IC50 of inhibition of SCF-induced KIT phosphorylation, normalized to chimeric 37M antibody” value is 0.82 relative to chimeric 37M antibody and the “Relative blocking activity, assay #4 (96-well): IC50 of inhibition of SCF-induced KIT phosphorylation, normalized to chimeric 37M antibody” value was 0.86 relative to chimeric 37M antibody.

The target in a further test is T1, murine KIT. Nature of the test: additional binding assays (format not described).
For the molecule B2, the binding result was “no binding”.

Regarding B3, the binding result was “no binding”.

Consider B4, for which the binding result is “no binding”.

As to B5, the binding result was “no binding”.

In another test the target is T2, full-length, wild-type human KIT …. Nature of the test: flow cytometry on CHO cells expressing full-length wild-type human KIT (FIG. 6). As to the method: Briefly, parental CHO cells and CHO/KIT-WT cells were washed and incubated with 0.01 nM, 0.1 nM, 1 nM or 10 nM of a chimeric (human-mouse) 37M antibody, antibody Hum17, Hum8, Hum4, or Hum10, a negative control isotype IgG antibody, or a commercial anti-KIT antibody as a positive control. The samples were processed for flow cytometry analysis. More specifically, cells were removed from the culture flasks using EDTA, and washed with PBS. Then, the cells were resuspended in media and counted. Each sample containing approximately 200,000 to 250,000 cells was spun, the media was removed, and the cells were resuspended in FC buffer (1% BSA, 0.01% sodium azide in 1×PBS) for the blocking step. The cells were incubated in FC buffer for 1 hour on ice. Then, primary antibody (e.g., a chimeric (human-mouse) 37M antibody, Hum17, Hum8, Hum4, Hum10, positive control anti-KIT antibody, or negative control antibody) was added to the cells in FC buffer as described above. The samples were mixed and incubated on ice for 1 hour, followed by washing the cells with 0.5-1 mL FC buffer. The FC buffer was removed by spinning the cells at 1200 rpm for 3 minutes at 4° C., decanting the liquid. The cell pellets were resuspended in 200 μL FC buffer, and secondary antibody (DyLight 488 AffiniPure Goat Anti-Mouse IgG Jackson Laboratories) was added to the cells at a 1:1000 to 1:2000 dilution. The samples were mixed and incubated on ice for 1 hour, and then washed as described above. The samples were run on a fluorescence activated cell sorter (FACS) machine (Accuri FlowCytometer C6). Samples were analyzed by following channel FLA-1 for DyLight-conjugated samples.
On the technique in general: Flow cytometry measures light scatter and fluorescence of single cells or particles in a stream.
As a reminder, the EC50 is the concentration needed to bring the measured effect to its halfway point. Take B1: the EC50 is ~0.047 nM.

Turning to B2, the EC50 was ~0.083 nM.

For the molecule B3, the EC50 was ~0.139 nM.

Turning to B4, the concentration for a half-maximal effect (EC50) is ~0.106 nM.

In the case of B5, the EC50 is ~0.132 nM.

A further test addresses T3, recombinant KIT D4/D5 (human, UniProt P10721 26-519).
T3 construct: also called recombinant c-Kit Ig-like domains D4/D5; recombinant polypeptide of the D4/D5 region of human KIT
Nature of the test: solid phase ELISA, plate-adsorbed recombinant D4/D5 region of human KIT (FIG. 5). The protocol: Recombinant antigen corresponding to the D4/D5 region of the KIT extracellular domain (see FIG. 2) was absorbed onto 96-well microtiter plates. In particular, recombinant antigen (5 μg) were diluted into 10 mL of borate buffer, and 100 μL of the antigen solution were added to each well of a 96 well plate and were incubated at 4° C. overnight.
ELISA: Following one rinse with TBS-T, blocking buffer (200 μL) was added to each well of the plate with the adsorbed antigen and was incubate at room temperature for one hour. Then, the blocking buffer was removed, and the serially diluted solutions of test antibodies and controls were added to the plate in a volume of 50 μL and incubated at room temperature for one hour. The antibody solutions were removed, and the plate was washed three times with 100 μL of wash buffer on a plate washer. After the last wash, the plate was blotted dry. Secondary antibody solution was diluted 1:8000 and was added to each well in a volume of 100 μL and allowed to incubate for one hour at room temperature. The diluted secondary antibody solution was removed, and the plate was washed three times with 100 μL of wash buffer on a plate washer. Then, freshly mixed TMB substrate solution was added to each well in a volume of 100 μL and was allowed to incubate at room temperature for 30 minutes. Subsequently, 100 μL of 2N H₂SO₄ were added to each well and immediately read on the plate reader. An irrelevant antibody served as the negative control, and an anti-KIT antibody against the D4 and/or D5 domain of the extracellular region of KIT served as the positive control. OD values for each sample were obtained at a wavelength of 450 nm.
Results were analyzed using Graph Pad Prism and Excel to obtain the concentration of antibodies at 50% binding to antigen.
Background: An ELISA detects its analyte on a solid surface through an enzyme-linked reagent.
For B1, the EC50 is ~0.012 nM.

For B2, the EC50 is ~0.011 nM.

Turning to B3, the EC50 was ~0.0066 nM.

As for B4, the EC50 is ~0.0075 nM.

In the case of B5, the EC50 is ~0.023 nM.

Another test has as its target T3, recombinant KIT D4/D5. As to the kind of experiment: direct binding ELISA, plate-coated recombinant KIT D4/D5; assay #3 (purified). As to the method:
(§1) The binding affinity of the anti-KIT antibodies to the target antigen KIT Ig-like domains D4/D5 was assessed by direct binding ELISA. […] Bound antibody was detected with anti-human Ig-HRP followed by detection using TMB substrate.
Turning to B2, the Relative binding activity is 0.89 relative to chimeric antibody 37C (normalized EC50).

Turning to B3, the Relative binding activity was 0.98 relative to chimeric antibody 37C (normalized EC50).

In the case of B4, the Relative binding activity is 1.07 relative to chimeric antibody 37C (normalized EC50).

Regarding B5, the Relative binding activity was 0.87 relative to chimeric antibody 37C (normalized EC50).

For the next test, the target named is T3, recombinant KIT D4/D5. As to the kind of experiment: direct binding ELISA, plate-coated recombinant KIT D4/D5; assay #4 (purified). As to the method: as §1
On to B2, for which the Relative binding activity was 0.75 relative to chimeric antibody 37C (normalized EC50).

B3: the Relative binding activity is 0.72 relative to chimeric antibody 37C (normalized EC50).

Take B4: the Relative binding activity was 0.83 relative to chimeric antibody 37C (normalized EC50).

With B5, the Relative binding activity is 0.72 relative to chimeric antibody 37C (normalized EC50).

In another test the target is T3, recombinant KIT D4/D5. Nature of the test: direct binding ELISA, plate-coated recombinant KIT D4/D5; assay #1 (supernatant). As to the method:
as §1
As to B2, the Relative binding activity is 1.02 relative to chimeric antibody 37C (normalized EC50).

Consider B3, for which the Relative binding activity was 1.17 relative to chimeric antibody 37C (normalized EC50).

Consider B5, for which the Relative binding activity is 1.1 relative to chimeric antibody 37C (normalized EC50).

The target in the next test is T3, recombinant KIT D4/D5. Nature of the test: direct binding ELISA, plate-coated recombinant KIT D4/D5; assay #2 (supernatant). As to the method: as §1
For the molecule B2, the Relative binding activity is 0.62 relative to chimeric antibody 37C (normalized EC50).

For the molecule B3, the Relative binding activity was 0.76 relative to chimeric antibody 37C (normalized EC50).

Take B4: the Relative binding activity was 0.91 relative to chimeric antibody 37C (normalized EC50).

For B5, the Relative binding activity is 0.88 relative to chimeric antibody 37C (normalized EC50).

For the next test, the target named is T3, recombinant KIT D4/D5. Nature of the test: direct binding ELISA, plate-coated recombinant KIT D4/D5; assay #4 (purified), 1 replicate. As to the method:
as §1
B1: the EC50 is 0.568 nM.

The target in a further test is T3, recombinant KIT D4/D5. As to the kind of experiment: direct binding ELISA, plate-coated recombinant KIT D4/D5; assay #3 (purified), mean of 2 replicates. The protocol:
as §1
In the case of B1, the EC50 is 0.462 nM.

For another test, the target named is T3, recombinant KIT D4/D5. As to the kind of experiment: direct binding ELISA, plate-coated recombinant KIT D4/D5; assay #1 (supernatant), mean of 4 replicates. The protocol: as §1
In the case of B1, the EC50 was determined as 0.381 nM.

Another test has as its target T3, recombinant KIT D4/D5. Nature of the test: direct binding ELISA, plate-coated recombinant KIT D4/D5; assay #2 (supernatant), mean of 5 replicates. As to the method: as §1
Turning to B1, the EC50 turned out to be 0.412 nM.
